Measured values: patent publication EP4670742A1, “ANTI-CD79B ANTIBODY DRUG CONJUGATES” (priority 2024, dated 2025)

T1: Human CD79b (AA 29-159)-6-His (Homo sapiens, UniProt P40259)
T1 construct: 6-His (C)
T1 sequence (P40259 29-159): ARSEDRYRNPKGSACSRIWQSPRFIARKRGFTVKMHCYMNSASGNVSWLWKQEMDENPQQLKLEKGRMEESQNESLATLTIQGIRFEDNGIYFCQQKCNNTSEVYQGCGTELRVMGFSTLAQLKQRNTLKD

T2: Human CD79b (AA 29-159)-6-His (human, UniProt P40259 29-159)
T2 construct: range 29-159; No linker between CD79b and the tag is stated
T2 sequence: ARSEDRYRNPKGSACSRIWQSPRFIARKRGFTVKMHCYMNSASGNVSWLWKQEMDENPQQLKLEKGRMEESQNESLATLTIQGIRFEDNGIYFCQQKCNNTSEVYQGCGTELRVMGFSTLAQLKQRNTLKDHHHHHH


Experiments:
[1] = tested on: DLBCL GCB CDX (OCI Ly19) Tumors; test: In vivo growth inhibition of xenografted tumors
Description: Based on an endpoint of 1000 mm3.

[2] = target: T1, Human CD79b (AA 29-159)-6-His; test: Binding affinity to recombinant human CD79b (ka, kd, KD)
Description: The binding ligand used in the assay was recombinant human CD79b having the amino acid sequence of Ala29-Asp159 of human CD79b, which was fused with a 6-His tag at the C terminus. Table 3 provides the measured association rate (ka), dissociation rate (kd), and equilibrium dissociation constant (KD). Table 3: Binding Affinity

[3] = target: T2, Human CD79b (AA 29-159)-6-His; test: kinetic binding assay, method not named; recombinant human CD79b (29-159)-6-His

Row | Molecule | tumor growth inhibition and tumor growth delay ([1]; FIG. 2, compared to vehicle controls, all dose levels tested) | CR (%) ([1]; dose 3x, control Vehicle) | PR (%) ([1]; dose 3x, control Vehicle) | TR (%) ([1]; dose 3x, control Vehicle) | TGD (%) ([1]; dose 3x, control Vehicle, end of study) | CR (%) ([1]; dose 3x, control Vehicle, listed as polatuzumab vedotin-piiq) | TGI (%) ([1]; dose 3x, single bolus intraperitoneally on day zero, control Vehicle, day 10 post dosing) | ka ([2]; association rate) [M⁻¹ s⁻¹] | kd ([2]; dissociation rate) [s⁻¹] | Kd ([2]; equilibrium dissociation constant) [nM] | Kd [3] [nM] | koff [3] [s⁻¹] | kon [3] [M⁻¹ s⁻¹]
1 | Polatuzumab vedotin-piiq | statistically significant | No CRs | 0 | 0 | 90 | 0 | 84 | 1.7e+07 | 0.0087 | 5 |  |  | 
2 | Polatuzumab vedotin-piiq (antibody) |  |  |  |  |  |  |  |  |  |  | 5 | 0.0087 | 1.7e+07
3 | ADC-1 (antibody, human IgG1, kappa, V domains shown, Top1i linker drug LD1 (formula III) linked via sulfhydryl groups of cysteine residues; n is 6 for the whole antibody (DAR = 6.05); conjugated positions and split between the chains not stated, Antibody drug conjugate of Ab1 (IgG1, human kappa); also called anti-CD79b Top1i ADC; anti-CD79b ADC of formula (IV) with Ab1, n is 6) VH: EVQLVESGGGLVQPGGSLRLPCAASGFTFYNYWITWIRQAPGKGLEWVANINQAGSEKSYLDAVKGRFTISRDNAKNSVYLQMNSLRVEDTAVYYCAGGFRAFDIWGQGTMVTVSS VL: DFVLTQSPLSLSVTPGEPASISCRSSQSLLHSSGESYLDWFLQRPGQSPQVLIYLGSHRASGAPDRFSGSGSGTDFTLKISRVEAEDVGVYYCMQALQTPLTFGGGTRVEIKR |  |  |  |  |  |  |  |  |  |  | 4 | 0.00068 | 170000
